System: Escherichia coli TOP10
Experiment: shrunken log2 fold change of peptide-encoding DNA abundance (4.5 h post-induction vs induction); higher = less antimicrobial activity (less host growth inhibition)
Details: time post-induction: 4.5 h; library: site-saturation at positions 5, 18, 19, 20
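Note: peptides expressed intracellularly from a pBAD plasmid library in pooled LB shake-flask culture, induced with 0.3% L-arabinose, DNA abundance read by NGS, three biological replicates, DESeq2 with apeglm shrinkage.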

Row | Sequence | shrunken log2 fold change
1 | RRIRQRPPRLPRPRPRPHMWPRP | -0.129
2 | RRIRSRPPRLPRPRPRPDERPRP | 0.1
3 | RRIRGRPPRLPRPRPRPYEFPRP | -0.0878
4 | RRIRERPPRLPRPRPRPAYGPRP | -0.108
5 | RRIRMRPPRLPRPRPRPFVYPRP | -0.00869
6 | RRIRDRPPRLPRPRPRPQENPRP | 0.0153
7 | RRIRFRPPRLPRPRPRPPCNPRP | -0.284
8 | RRIRCRPPRLPRPRPRPNYQPRP | -0.212
9 | RRIRPRPPRLPRPRPRPVQCPRP | -0.0846
10 | RRIRCRPPRLPRPRPRPPMMPRP | -0.0549
11 | RRIRERPPRLPRPRPRPWQAPRP | 0.00281
12 | RRIRDRPPRLPRPRPRPQNYPRP | -0.589
13 | RRIRSRPPRLPRPRPRPACSPRP | 0.147
14 | RRIRIRPPRLPRPRPRPYQVPRP | -0.14
15 | RRIRCRPPRLPRPRPRPPDVPRP | 0.156
16 | RRIRWRPPRLPRPRPRPFRLPRP | -0.394
17 | RRIRIRPPRLPRPRPRPWQGPRP | -0.125
18 | RRIRMRPPRLPRPRPRPMVTPRP | 0.131
19 | RRIRWRPPRLPRPRPRPKTTPRP | -0.0128
20 | RRIRPRPPRLPRPRPRPVEDPRP | 0.0885
21 | RRIRMRPPRLPRPRPRPQKCPRP | -0.0433
22 | RRIRYRPPRLPRPRPRPMGVPRP | -0.762

Row | Sequence | shrunken log2 fold change
23 | RRIRARPPRLPRPRPRPKAAPRP | 0.878
24 | RRIRERPPRLPRPRPRPSQAPRP | 0.151
25 | RRIRLRPPRLPRPRPRPYAMPRP | -0.226
26 | RRIRRRPPRLPRPRPRPPVYPRP | 0.32
27 | RRIRFRPPRLPRPRPRPQGWPRP | 0.466
28 | RRIRVRPPRLPRPRPRPWIPPRP | -0.513
29 | RRIRARPPRLPRPRPRPQNGPRP | -0.106
30 | RRIRERPPRLPRPRPRPQINPRP | -0.586
31 | RRIRSRPPRLPRPRPRPYWNPRP | 0.503
32 | RRIRERPPRLPRPRPRPQWVPRP | 0.0428
33 | RRIRPRPPRLPRPRPRPAVWPRP | 0.602
34 | RRIRRRPPRLPRPRPRPFGYPRP | -0.018
35 | RRIRPRPPRLPRPRPRPLQTPRP | 0.0208
36 | RRIRRRPPRLPRPRPRPLYRPRP | -0.121
37 | RRIRTRPPRLPRPRPRPCKCPRP | -1.16
38 | RRIRNRPPRLPRPRPRPDVMPRP | -0.275
39 | RRIRMRPPRLPRPRPRPVAGPRP | 1.31
40 | RRIRPRPPRLPRPRPRPSMKPRP | -0.223
41 | RRIRERPPRLPRPRPRPQWRPRP | -0.0529
42 | RRIRYRPPRLPRPRPRPSYWPRP | -0.716
43 | RRIRPRPPRLPRPRPRPVQWPRP | 0.151
44 | RRIRHRPPRLPRPRPRPEPQPRP | 0.39

Row | Sequence | shrunken log2 fold change
45 | RRIRVRPPRLPRPRPRPFWNPRP | -0.00518
46 | RRIRCRPPRLPRPRPRPLAPPRP | 0.268
47 | RRIRPRPPRLPRPRPRPMQEPRP | -0.0107
48 | RRIRIRPPRLPRPRPRPLAMPRP | -0.159
49 | RRIRFRPPRLPRPRPRPHEAPRP | -0.377
50 | RRIRDRPPRLPRPRPRPPRVPRP | 0.727
51 | RRIRPRPPRLPRPRPRPTDHPRP | -0.114
52 | RRIRNRPPRLPRPRPRPANYPRP | -0.0161
53 | RRIRHRPPRLPRPRPRPDAPPRP | 2.03
54 | RRIRDRPPRLPRPRPRPYCCPRP | -0.151
55 | RRIRVRPPRLPRPRPRPIENPRP | -0.229
56 | RRIRPRPPRLPRPRPRPVLNPRP | -0.113
57 | RRIRGRPPRLPRPRPRPPLLPRP | 0.633
58 | RRIRSRPPRLPRPRPRPAFHPRP | -0.0038
59 | RRIRMRPPRLPRPRPRPPFPPRP | 0.671
60 | RRIRCRPPRLPRPRPRPCAKPRP | -0.168
61 | RRIRWRPPRLPRPRPRPMVIPRP | -0.14
62 | RRIRKRPPRLPRPRPRPRGHPRP | 0.189
63 | RRIRERPPRLPRPRPRPTAAPRP | 0.456
64 | RRIRIRPPRLPRPRPRPAELPRP | -0.0331
65 | RRIRERPPRLPRPRPRPANDPRP | -0.0189
66 | RRIRFRPPRLPRPRPRPNGRPRP | -0.123

Row | Sequence | shrunken log2 fold change
67 | RRIRFRPPRLPRPRPRPMQIPRP | -0.147
68 | RRIRQRPPRLPRPRPRPHLWPRP | 0.0824
69 | RRIRSRPPRLPRPRPRPSCNPRP | -0.377
70 | RRIRHRPPRLPRPRPRPMKRPRP | 0.0794
71 | RRIRHRPPRLPRPRPRPHRPPRP | -0.133
72 | RRIRVRPPRLPRPRPRPDFKPRP | 0.0385
73 | RRIRMRPPRLPRPRPRPRHMPRP | 0.418
74 | RRIRRRPPRLPRPRPRPHYIPRP | -0.662
75 | RRIRNRPPRLPRPRPRPALSPRP | 0.0962
76 | RRIRARPPRLPRPRPRPYCAPRP | -0.277
77 | RRIRCRPPRLPRPRPRPKSEPRP | -0.0877
78 | RRIRGRPPRLPRPRPRPGKDPRP | 0.18
79 | RRIRGRPPRLPRPRPRPYRSPRP | -0.113
80 | RRIRCRPPRLPRPRPRPQMIPRP | -1.55
81 | RRIRARPPRLPRPRPRPFQTPRP | -0.0176
82 | RRIRFRPPRLPRPRPRPQRVPRP | 0.045
83 | RRIRCRPPRLPRPRPRPSKQPRP | -0.209
84 | RRIRERPPRLPRPRPRPSHDPRP | -0.118
85 | RRIRLRPPRLPRPRPRPKDMPRP | -0.0444
86 | RRIRWRPPRLPRPRPRPMGVPRP | -0.00743
87 | RRIRVRPPRLPRPRPRPWFFPRP | -0.148
88 | RRIRQRPPRLPRPRPRPCHAPRP | -0.126

Row | Sequence | shrunken log2 fold change
89 | RRIRERPPRLPRPRPRPGPNPRP | -0.106
90 | RRIRCRPPRLPRPRPRPTHSPRP | 0.288
91 | RRIRHRPPRLPRPRPRPMEHPRP | -0.337
92 | RRIRLRPPRLPRPRPRPDHDPRP | -0.0947
93 | RRIRRRPPRLPRPRPRPVLMPRP | 0.146
94 | RRIRDRPPRLPRPRPRPYVQPRP | -0.13
95 | RRIRFRPPRLPRPRPRPPKNPRP | 0.541
96 | RRIRHRPPRLPRPRPRPFAAPRP | -0.0135
97 | RRIRWRPPRLPRPRPRPVIQPRP | -0.2
98 | RRIRNRPPRLPRPRPRPQFFPRP | -0.0257
99 | RRIRQRPPRLPRPRPRPMFGPRP | 0.0107
100 | RRIRLRPPRLPRPRPRPMDEPRP | -0.119
101 | RRIRIRPPRLPRPRPRPEGMPRP | -0.0787
102 | RRIRDRPPRLPRPRPRPFTNPRP | -0.0104
103 | RRIRMRPPRLPRPRPRPQPMPRP | 0.838
104 | RRIRHRPPRLPRPRPRPRNKPRP | -0.2
105 | RRIRCRPPRLPRPRPRPQVVPRP | -0.266
106 | RRIRYRPPRLPRPRPRPYDDPRP | -0.129
107 | RRIRYRPPRLPRPRPRPEMDPRP | -0.338
108 | RRIRIRPPRLPRPRPRPMTYPRP | -0.0592
109 | RRIRARPPRLPRPRPRPVDRPRP | 0.193

— the supplement of paper PMC9112550, “Optimization of the antimicrobial peptide Bac7 by deep mutational scanning” (BMC Biology, 2022)
